This test deals with SeTau-405 fluorescently labeled BOA (Burkholderia oklahomensis). Description: other fluorescence titration.

As for “SARS-CoV-2 Spike protein (Hexapro S) (from UniProt P0DTC2) (natural protein)”, the half-saturation point was 30 to 60 nM.

The values above are taken from publication PMC9810211.
